Test results taken from patent US20260250398A1 (published 2026).

Tests used:
Assay in all cases: BLI; avid
ANT 98 = biological target: ANT 98
ANT 80 = biological target: ANT 80
ANT 99 = biological target: ANT 99

Kd (ANT 98): 2 nM | Kd (ANT 80): 0.05 nM | Kd (ANT 99): 0.4 nM
B1: FZD5 (receptor)
chain: ASKAPVCQEITVPMCRGIGYNLTHMPNQFNHDTQDEAGLEVHQFWPLVEIQCSPDLRFFLCSMYTPICLPDYHKPLPPCRSVCERAKAGCSPLMRQYGFAWPERMSCDRLPVLGRDAEVLCMDYNRSEATTAPPRPFPAKP
